# B1: Small vasohibin-binding protein (SVBP) (other)
# chain: MDPPARKEKTKVKESVSRVEKAKQKSAQQELKQRQRAEIYALNRVMTELEQQQFDEFCKQMQPPGE
# notes: Coexpressed with VASH1 or VASH2
# Molecular target: T1, recombinant human Vasohibin-2 (VASH2) (Homo sapiens, UniProt Q86V25 1-355, limits assumed)
# T1 construct: Produced in E. coli (pET-28a(+)/pGEX) and purified by IMAC and ion exchange
# Experiment: recombinant complex purified and used as detyrosinase; no direct binding assay described
# T1 sequence (Q86V25 whole entry): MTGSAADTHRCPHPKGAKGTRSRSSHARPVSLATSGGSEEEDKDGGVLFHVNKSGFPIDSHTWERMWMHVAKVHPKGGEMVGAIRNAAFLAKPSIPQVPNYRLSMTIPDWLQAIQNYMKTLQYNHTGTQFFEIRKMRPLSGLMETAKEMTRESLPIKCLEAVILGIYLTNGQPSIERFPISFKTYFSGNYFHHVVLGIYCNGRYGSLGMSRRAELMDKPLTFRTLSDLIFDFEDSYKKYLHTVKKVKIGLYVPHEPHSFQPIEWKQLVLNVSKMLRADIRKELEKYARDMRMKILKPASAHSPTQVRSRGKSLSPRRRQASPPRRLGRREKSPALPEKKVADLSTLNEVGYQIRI
binder,measurement,value
B1,binding result,binds
